# Biological target: BMP-2 (UniProt P12643)
# Test: cell-based or functional assay
# UniProt P12643, sequence (P12643 283-396 limits assumed): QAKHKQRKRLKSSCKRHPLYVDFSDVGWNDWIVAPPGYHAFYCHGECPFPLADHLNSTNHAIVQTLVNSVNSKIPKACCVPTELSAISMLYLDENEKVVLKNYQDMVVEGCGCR
substance,measurement,value
DRAGON.Fc (soluble DRAGON fused to the Fc portion of human immunoglobulin) (from UniProt Q6NW40 46-409) (Fc fusion),inhibition of BMP-2 induction of hepcidin promoter activity (luciferase) by 20% pooled serum from DRAGON.Fc treated mice; serum from mock treated control mice inhibited by about 30%,> 70%
